Target: the molecule itself
Assay: AUC; sedimentation equilibrium at different protein concentrations and rotor speeds, 20 °C, global fit to a monomer-dimer self-association model; dimer to monomers

B1: R1-WT, isolated RING domain of rhesus TRIM5α (domain or fragment, rhesus monkey, UniProt Q0PF16 2-90, looked up)
chain: ASGILLNVKEEVTCPICLELLTEPLSLHCGHSFCQACITANHKKSMLYKEGERSCPVCRISYQPENIQPNRHVANIVEKLREVKLSPEE
notes: TRIM5α RING domain, rhesus monkey, residues 2-90 (methods); the results give residues 2-89; Tags removed by TEV protease; 15N-labelled for NMR; also called RING monomer; isolated RING monomer; source: bacteria, purified (Ni-NTA, Superdex 75); not shown: His6, N-terminal, cleaved; GB1, N-terminal, cleaved
In the case of B1, the Kd is reported as 63 ± 28 µM.

From article PMC9675739, “Structural and functional asymmetry of RING trimerization controls priming and extension events in TRIM5α autoubiquitylation” (Nature Communications, 2022)
